Results taken from US20160031942A1 (LONDON HEALTH SCIENCES CENTRE RESEARCH, published 2016).
Ends that are not written are not given here.

T1: Recombinant protein RHAMM-CT (truncated RHAMM, carboxy terminus containing the HA binding domain, amino acids … (UniProt Q00547 706-766))
T1 chain: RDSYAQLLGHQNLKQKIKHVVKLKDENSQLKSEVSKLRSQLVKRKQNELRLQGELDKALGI

T2: Recombinant protein RHAMM-CT (truncated RHAMM, carboxy terminus containing the HA binding domain, amino acids … (Mus musculus (Mouse), UniProt Q00547 706-766))
T2 construct: Expressed in E. coli BL21 from pPAL7-RHAMM as eXact-tagged protein and purified on Profinity eXact resin (fluoride elution); M.W. 7.1 kDa, pI 10.1; also called recombinant RHAMM
T2 sequence: T1 chain

B1: peptide 1a (SEQ ID NO: 1), unmodified tubulin-derived peptide, alpha-Ia CTT (peptide)
peptide: VEGEGEEEGEEY-NH2
notes: Synthetic 12-mer made on Rink amide MBHA resin; also called ala-CTT
B2: peptide 3a (SEQ ID NO: 3), unmodified tubulin-derived peptide, alpha-IIIc CTT (peptide)
peptide: SVEAEAEEGEEY-NH2
notes: Synthetic 12-mer made on Rink amide MBHA resin
B3: peptide 9a (SEQ ID NO: 9), unmodified tubulin-derived peptide, beta-Ia CTT (peptide)
peptide: EEDFGEEAEEEA-NH2
notes: as for B2
B4: peptide 11a (SEQ ID NO: 11), unmodified tubulin-derived peptide, beta-IV CTT (peptide)
peptide: GEFEEEAEEEVA-NH2
notes: as for B2
B5: peptide 12a (SEQ ID NO: 12), unmodified tubulin-derived peptide (peptide)
peptide: EAFEDEEEEIDG-NH2
notes: as for B2

Molecular target: T1, Recombinant protein RHAMM-CT (truncated …)
Assay: SPR

Kd [nM] | Binder
180 | GEFSEAREDMAA [7]
< 1000 | DSADGEDEGEEY [SEQ ID NO 2 (tubulin-derived peptide containing the DEXEEZ motif)]
330 | LEKDYEEVGVDS [6]
< 1000 | IDSYEDEDEGEE [SEQ ID NO 4 (tubulin-derived peptide containing the DEXEEZ motif)]
< 1000 | DSFEEENEGEEF [5]
176 | FVHWYVGEGMEE [8]
24 | B1
331 | B2
32 | B3

Molecular target: T1, Recombinant protein RHAMM-CT (truncated …)
Assay: SPR
Remark: another data set of the same source

Kd [nM] | Binder
< 1000 | VQQLIDEYHAAT [16]
130 | B4
< 1000 | SNMNDLVSEYQQ [13]
211 | B5
< 1000 | GEFEEEEGEDEA [SEQ ID NO 10 (tubulin-derived peptide containing the EEXEDZ motif)]
< 1000 | DNPDEMDTSREI [17]
< 1000 | RPDYISWGTQEQ [15]

What follows are binders tested against T2, Recombinant protein RHAMM-CT (truncated …) (assay: SPR-based screening (FIG. 3B legend)).
Procedure: ProteON XPR36 system was used for the selection and ranking of different tubulin derived peptides against RHAMM. For immobilization of RHAMM, the ProteON GLC sensor chip surfaces were activated by amine coupling using 100 mM EDAC and 24 mM sulfo-NHS. RHAMM (30 μg/mL in sodium bicarbonate buffer, pH 9.7) was injected at a flow a rate of 30 μl/min. A buffer sample was injected on a different sensor plate for use as a reference. Ethanolamine HCl (1M, pH 8.5) was then injected to deactivate any remaining surface groups. Peptides (10 μM in PBS-T, 2% DMSO) were injected to a RHAMM functionalized surface at 50 μL/min for 3 minutes followed by a 10 minute dissociation (i.e. injection of PBS-T buffer) period. The surfaces were regenerated using two injections of 30 μL of 1M NaCl prior to the injection of the next peptide. In all experiments, reference subtraction was performed using data obtained from reference plate (No RHAMM) and RHAMM functionalized plate.
After immobilization of RHAMM on the SPR sensor chip, injection of a series of tubulin derived peptides was carried out. Association of the peptides with RHAMM proceeded for 3 minutes and the dissociation in analyte free buffer was carried out for 10 minutes. […] For each peptide injection, control sensograms (no immobilized RHAMM and buffer injection) were subtracted from the test sensograms, and the chip surface was regenerated prior to the next peptide injection in order to remove any remaining bound peptides.

binding result | Binder
binds | B4
binds | B5
binds | B1
binds | B2
binds | B3

Molecular target: T1, Recombinant protein RHAMM-CT (truncated …)
Assay: SPR; average

Kd [nM] | Binder
130 | B4
211 | B5
331 | B2

Molecular target: T1, Recombinant protein RHAMM-CT (truncated …)
Assay: SPR; RHAMM 500 nM

Kd [nM] | Binder
126 | B4
217 | B5
310 | B2

Molecular target: T1, Recombinant protein RHAMM-CT (truncated …)
Assay: SPR; RHAMM 750 nM

Kd [nM] | Binder
145 | B4
215 | B5
325 | B2

Molecular target: T1, Recombinant protein RHAMM-CT (truncated …)
Assay: SPR; RHAMM 1000 nM

Kd [nM] | Binder
120 | B4
201 | B5
358 | B2
